The Kd is the equilibrium constant for the complex coming apart.

The labels stand for the following.
T1: mtSSB (wild type) (UniProt Q04837 17-148)
T1 sequence: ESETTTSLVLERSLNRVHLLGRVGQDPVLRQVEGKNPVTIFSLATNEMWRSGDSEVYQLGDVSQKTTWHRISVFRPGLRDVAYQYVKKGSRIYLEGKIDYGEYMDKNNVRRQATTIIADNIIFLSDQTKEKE

B1: biotinylated mtSSB variant lacking nine residues of loop 2.3 (Δ67-75), BTN-mtSSB_(l2.3) (natural protein, human, UniProt Q04837 17-148, looked up)
chain: ESETTTSLVLERSLNRVHLLGRVGQDPVLRQVEGKNPVTIFSLATNEMWRGDVSQKTTWHRISVFRPGLRDVAYQYVKKGSRIYLEGKIDYGEYMDKNNVRRQATTIIADNIIFLSDQTKEKE
modifications: biotin (conjugated; site not stated)
notes: also called loop 2.3-deficient mtSSB; source: purified recombinant protein; details in the Supplementary Materials
B2: biotinylated mitochondrial single-stranded DNA-binding protein (BTN-mtSSB), wild type (natural protein, human, UniProt Q04837 17-148, looked up)
chain: T1 sequence
modifications: biotin (conjugated; site not stated)
notes: also called mtSSB4; wild-type mtSSB; source: purified recombinant protein; details in the Supplementary Materials
B3: catalytic subunit of mitochondrial DNA polymerase gamma (Pol γα) (enzyme, human, UniProt P54098 1-1239, looked up)
chain: MSRLLWRKVAGATVGPGPVPAPGRWVSSSVPASDPSDGQRRRQQQQQQQQQQQQQPQQPQVLSSEGGQLRHNPLDIQMLSRGLHEQIFGQGGEMPGEAAVRRSVEHLQKHGLWGQPAVPLPDVELRLPPLYGDNLDQHFRLLAQKQSLPYLEAANLLLQAQLPPKPPAWAWAEGWTRYGPEGEAVPVAIPEERALVFDVEVCLAEGTCPTLAVAISPSAWYSWCSQRLVEERYSWTSQLSPADLIPLEVPTGASSPTQRDWQEQLVVGHNVSFDRAHIREQYLIQGSRMRFLDTMSMHMAISGLSSFQRSLWIAAKQGKHKVQPPTKQGQKSQRKARRGPAISSWDWLDISSVNSLAEVHRLYVGGPPLEKEPRELFVKGTMKDIRENFQDLMQYCAQDVWATHEVFQQQLPLFLERCPHPVTLAGMLEMGVSYLPVNQNWERYLAEAQGTYEELQREMKKSLMDLANDACQLLSGERYKEDPWLWDLEWDLQEFKQKKAKKVKKEPATASKLPIEGAGAPGDPMDQEDLGPCSEEEEFQQDVMARACLQKLKGTTELLPKRPQHLPGHPGWYRKLCPRLDDPAWTPGPSLLSLQMRVTPKLMALTWDGFPLHYSERHGWGYLVPGRRDNLAKLPTGTTLESAGVVCPYRAIESLYRKHCLEQGKQQLMPQEAGLAEEFLLTDNSAIWQTVEELDYLEVEAEAKMENLRAAVPGQPLALTARGGPKDTQPSYHHGNGPYNDVDIPGCWFFKLPHKDGNSCNVGSPFAKDFLPKMEDGTLQAGPGGASGPRALEINKMISFWRNAHKRISSQMVVWLPRSALPRAVIRHPDYDEEGLYGAILPQVVTAGTITRRAVEPTWLTASNARPDRVGSELKAMVQAPPGYTLVGADVDSQELWIAAVLGDAHFAGMHGCTAFGWMTLQGRKSRGTDLHSKTATTVGISREHAKIFNYGRIYGAGQPFAERLLMQFNHRLTQQEAAEKAQQMYAATKGLRWYRLSDEGEWLVRELNLPVDRTEGGWISLQDLRKVQRETARKSQWKKWEVVAERAWKGGTESEMFNKLESIATSDIPRTPVLGCCISRALEPSAVQEEFMTSRVNWVVQSSAVDYLHLMLVAMKWLFEEFAIDGRFCISIHDEVRYLVREEDRYRAALALQITNLLTRCMFAYKLGLNDLPQSVAFFSAVDIDRCLRKEVTMDCKTPSNPTGMERRYGIPQGEALDIYQIIELTKGSLEKRSQPGP

Data set [1] concerns the target Pol γβ (Homo sapiens) (UniProt Q9UHN1). The note with it: cited from earlier work.
Data set [2] concerns the target B3. The data set is described as follows: BLI; BTN-mtSSB or BTN-mtSSB_(l2.3) (600 nM) saturated on streptavidin sensors; Pol γα as analyte at increasing concentrations; Ac buffer: 50 mM Tris-HCl pH 8.0, 10 mM KCl, 4 mM MgCl2, 0.4 mg/ml BSA, 10 mM DTT; 30°C, 1,000 rpm; 1:1 interaction model. The note with it: both partners purified.
In data set [3] the target is T1, mtSSB (wild type). The data set is described as follows: BLI; 4 mM Mg2+; equilibrium responses of mass transfer fit, non-1:1 binding; BLI: 50 mM Tris-HCl pH 8.0, 10 mM KCl, 4 mM MgCl2, 0.4 mg/ml BSA, 10 mM DTT, 30 C. The note with it: protein: recombinant; chain copies: 4; label: 5'-biotin (immobilized on streptavidin sensor); single strand. For orientation: In BLI a coated tip is dipped into the sample, and binding shifts an interference pattern.

In data set [4] the target is B1. The data set is described as follows: cell-based or functional assay.

Chain of Pol γβ (Homo sapiens) (Q9UHN1 2-485): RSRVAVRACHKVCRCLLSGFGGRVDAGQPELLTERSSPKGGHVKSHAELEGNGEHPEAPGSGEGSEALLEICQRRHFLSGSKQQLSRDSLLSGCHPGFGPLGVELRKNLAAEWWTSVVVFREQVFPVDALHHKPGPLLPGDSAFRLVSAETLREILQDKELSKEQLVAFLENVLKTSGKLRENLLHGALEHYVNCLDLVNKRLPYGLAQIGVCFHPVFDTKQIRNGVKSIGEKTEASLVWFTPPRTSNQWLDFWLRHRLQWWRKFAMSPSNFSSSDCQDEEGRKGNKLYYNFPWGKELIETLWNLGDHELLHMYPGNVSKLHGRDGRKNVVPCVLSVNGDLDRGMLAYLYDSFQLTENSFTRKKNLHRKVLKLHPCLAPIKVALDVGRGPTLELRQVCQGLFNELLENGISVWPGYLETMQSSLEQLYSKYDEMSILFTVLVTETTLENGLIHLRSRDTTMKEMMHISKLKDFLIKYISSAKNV

With Pol γα (from UniProt P54098), the Kd in data set [1] was 20 nM. In turn, B1 registered a Kd in data set [2] of 26 nM. The same measure, in the same setting: the value for B2 was 48 nM. As to ATTATGAATTAATTTAATAATTTTTTTTTTTTTTTTTTTT (ssDNA, 5'-biotin) [BTN-ssDNA 40-mer], the Kd in data set [3] came to 2.3 nM.

With B3, the “inhibition of primer extension by Pol γα on primer-template (15/59) DNA (mtSSB displacement assay), mtSSB_(l2.3) at 1:1 (~10%) and three-fold molar ratio to DNA template” value in data set [4] was ~25%.

Source of the values: publication PMC8440931, “Physical and Functional Interaction of Mitochondrial Single-Stranded DNA-Binding Protein and the Catalytic Subunit of DNA Polymerase Gamma” (Frontiers in Genetics, 2021).
